In patent US7083511B1, “Methods” (The University of Dundee, priority 1998, dated 2006):

Legend:
[1] = molecular target: T1, PKBα (Homo sapiens, UniProt P31749); experiment: Activity of PKBα towards synthetic peptides related to Crosstide; type: biochemical; settings: GST-PKBα from 293 cells activated by PDK1; each peptide 30 μM
T1 construct: pEBG-PKBa expressing full length PKBα; made in house; host or cells: 293 cells (pEBG-PKBα)

[2] = molecular target: T2, SGK1 (Homo sapiens, UniProt O00141, S422D); experiment: Activity of SGK1 toward synthetic peptides related to Crosstide; type: biochemical; settings: each peptide 30 μM, average of two experiments
T2 construct: made in house; host or cells: human embryonic kidney 293 cells (pEBG-2T vector)
T2 sequence (O00141 61-431 S422D): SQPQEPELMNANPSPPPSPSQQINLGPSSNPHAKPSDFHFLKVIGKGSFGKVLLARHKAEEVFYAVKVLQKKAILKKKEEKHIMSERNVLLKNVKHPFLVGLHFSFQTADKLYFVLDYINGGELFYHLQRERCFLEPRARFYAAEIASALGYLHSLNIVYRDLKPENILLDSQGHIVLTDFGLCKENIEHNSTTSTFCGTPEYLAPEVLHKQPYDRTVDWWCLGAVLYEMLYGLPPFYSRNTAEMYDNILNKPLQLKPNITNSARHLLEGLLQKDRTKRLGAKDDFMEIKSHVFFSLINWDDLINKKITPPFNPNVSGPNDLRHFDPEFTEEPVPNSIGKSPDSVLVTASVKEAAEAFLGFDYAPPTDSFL

[3] = molecular target: T3, SGK2 (Homo sapiens, UniProt Q9HBY8, S356D); experiment: Activity of SGK2 toward synthetic peptides related to Crosstide; type: biochemical; settings: each peptide 30 μM, average of two experiments
T3 construct: pEBG-SGK2α expressing full length of SGK2α; made in house; host or cells: 293 cells (pEBG-2T-2 vector)
T3 sequence (Q9HBY8 1-367 S356D): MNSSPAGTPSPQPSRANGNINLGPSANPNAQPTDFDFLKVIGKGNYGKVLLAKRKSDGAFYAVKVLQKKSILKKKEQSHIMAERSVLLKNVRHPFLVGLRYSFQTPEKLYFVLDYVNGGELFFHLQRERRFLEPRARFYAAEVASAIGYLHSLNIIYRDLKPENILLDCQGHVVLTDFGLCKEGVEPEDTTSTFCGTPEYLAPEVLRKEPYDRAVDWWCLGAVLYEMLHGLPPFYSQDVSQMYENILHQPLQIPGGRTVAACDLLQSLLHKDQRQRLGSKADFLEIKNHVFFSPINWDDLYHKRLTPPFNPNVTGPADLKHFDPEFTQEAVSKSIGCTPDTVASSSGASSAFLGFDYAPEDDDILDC
Experimental: Each GST-SGK isoform (0.4 μg) was incubated for 20 min at 30° C. with protein phosphatase 2A (PP2A, 30 mU/ml) in a 10 μl incubation containing 20 mM Tris/HCl, pH 7.5, 0.1% (v/v) 2-mercaptoethanol, 0.1 mM EGTA and 1 mg/ml bovine serum albumin. After addition of microcystin-LR to 1 μM to inactivate PP2A, SGK (0.4 μg) was phosphorylated for 30 min at 30° C. in a mixture (20 μl) containing 50 mM Tris/HCl, pH 7.5, 10 mM MgCl2, 0.1% (v/v) 2-mercaptoethanol, 0.1 mM EGTA, GST-PDK1 (0.03–300 ng) diluted in Buffer C and 100 μM unlabelled ATP. […] ID. NO:30) and 4.2 μM of residues 5–24 of the specific protein inhibitor of adenosine 3′5′ cyclic monophosphate-dependent protein kinase. After 10 min at 30° C., the reactions were terminated by spotting aliquots on to P81 phosphocellulose paper, followed by immediate immersion in 75 mM phosphoric acid. The papers were washed, dried and analysed. One unit (U) of SGK was that amount which phosphorylated 1 nmole of Crosstide in one min.

[4] = molecular target: T4, SGK (Homo sapiens, UniProt O00141, S422D); experiment: Activity of SGK towards synthetic peptides related to Crosstide; type: biochemical; settings: GST-ΔN-SGK from 293 cells activated by PDK1; each peptide 30 μM
T4 construct: made in house; host or cells: human embryonic kidney 293 cells (pEBG-2T vector)
T4 sequence (O00141 61-431 S422D): T2 sequence (O00141 61-431 S422D)
Experimental: Phosphorylation and assay of SGK. Phosphorylation was carried out at 30° C. in 50 μl incubations containing 50 mM Tris/HCl pH 7.5, 0.1 mM EGTA, 0.1% (v/v) 2-mercaptoethanol, 2.5 μM PKI, 1 μM microcystin-LR, 10 mM magnesium chloride and 100 μM ATP. Where indicated lipid vesicles containing phosphatidylcholine (100 μM), phosphatidyl serine (100 μM) and PtdIns(3,4,5)P3 (1 μM) were also included. SGK activity was assayed exactly as described for PKB [6] using the peptide […] (SEQ. ID. NO:30) (“Crosstide”) at 30 μM as substrate. One unit of activity (U) was that amount which catalysed the phosphorylation of […] of Crosstide in one min.

[5] = molecular target: T5, SGK3 (Homo sapiens, UniProt Q96BR1, S486D); experiment: Activity of SGK3 toward synthetic peptides related to Crosstide; type: biochemical; settings: each peptide 30 μM, average of two experiments
T5 construct: SGK3 lacking the N-terminal 52 residues (ΔN-SGK3[53–429]); made in house; host or cells: 293 cells (pEBG-2T-2 vector)
T5 sequence (Q96BR1 120-496 S486D): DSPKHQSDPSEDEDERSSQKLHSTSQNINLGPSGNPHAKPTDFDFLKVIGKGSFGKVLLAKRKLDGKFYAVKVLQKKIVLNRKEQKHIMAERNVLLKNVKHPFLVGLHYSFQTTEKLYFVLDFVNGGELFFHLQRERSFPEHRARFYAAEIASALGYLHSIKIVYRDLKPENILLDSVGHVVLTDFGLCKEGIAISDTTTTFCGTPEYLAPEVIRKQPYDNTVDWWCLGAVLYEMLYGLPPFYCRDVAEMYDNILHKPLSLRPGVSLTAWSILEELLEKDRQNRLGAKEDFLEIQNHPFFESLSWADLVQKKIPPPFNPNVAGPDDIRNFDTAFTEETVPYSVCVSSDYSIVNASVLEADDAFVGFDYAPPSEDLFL

[6] = tested on: SGK; experiment: Activation of GST-SGK in transfected 293 cells (Example 1); type: cell-based, human; settings: PMA 400 ng/ml 30 min, EGF 100 ng/ml 30 min
[7] = GST-ΔN-SGK1[S422D] from 293 cells
[8] = GST-SGK2α[S356D] from 293 cells
[9] = GST-ΔN-SGK3[S419D] from 293 cells

T1 sequence (P31749 whole entry, species assumed): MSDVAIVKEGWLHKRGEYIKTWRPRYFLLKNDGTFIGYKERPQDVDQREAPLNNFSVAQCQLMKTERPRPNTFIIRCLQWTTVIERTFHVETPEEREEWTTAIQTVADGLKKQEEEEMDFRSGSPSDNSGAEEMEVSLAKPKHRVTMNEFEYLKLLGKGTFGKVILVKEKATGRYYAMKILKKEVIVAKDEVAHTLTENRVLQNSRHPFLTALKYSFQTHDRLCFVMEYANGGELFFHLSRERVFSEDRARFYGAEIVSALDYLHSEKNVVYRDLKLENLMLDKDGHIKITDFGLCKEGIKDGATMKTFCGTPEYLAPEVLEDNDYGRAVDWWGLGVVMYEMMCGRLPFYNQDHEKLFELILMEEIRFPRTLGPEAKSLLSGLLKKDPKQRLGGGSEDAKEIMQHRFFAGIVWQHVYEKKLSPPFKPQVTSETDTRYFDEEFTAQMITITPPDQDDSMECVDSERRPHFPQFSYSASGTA

RPKTSSF [Peptide 9, ID; NO: 38]
PKBα activity relative to peptide 1 (Crosstide) [1]: 26% | SGK1 activity % relative to peptide 1 (Crosstide) [2, 7]: 11% | SGK2 activity % relative to peptide 1 (Crosstide) [3, 8]: 8% | SGK activity relative to peptide 1 (Crosstide) [4]: 49% | SGK3 activity % relative to peptide 1 (Crosstide) [5, 9]: 48%

CCCCCCCCCCCCCC(=O)O[C@@H]1[C@@H](C)[C@@]2(O)[C@@H](C=C(CO)C[C@]3(O)C(=O)C(C)=C[C@@H]23)[C@@H]2C(C)(C)[C@]12OC(C)=O [Phorbol myristate acetate, reference compound]
Activation of SGK by the stimulus (in words) [6]: did not induce any activation

RPRTSSE [Peptide 15, ID; NO: 44]
PKBα activity relative to peptide 1 (Crosstide) [1]: 21% | SGK1 activity % relative to peptide 1 (Crosstide) [2, 7]: 28% | SGK2 activity % relative to peptide 1 (Crosstide) [3, 8]: 34% | SGK activity relative to peptide 1 (Crosstide) [4]: 84% | SGK3 activity % relative to peptide 1 (Crosstide) [5, 9]: 67%

GRPRTSSFAEG [Peptide 1, ID; NO: 30, reference compound]
PKBα activity relative to peptide 1 (Crosstide) [1]: 100% | SGK1 activity % relative to peptide 1 (Crosstide) [2, 7]: 100% | SGK2 activity % relative to peptide 1 (Crosstide) [3, 8]: 100% | SGK activity relative to peptide 1 (Crosstide) [4]: 100% | SGK3 activity % relative to peptide 1 (Crosstide) [5, 9]: 100%

PRTSSF [Peptide 4, ID; NO: 33]
PKBα activity relative to peptide 1 (Crosstide) [1]: <1% | SGK1 activity % relative to peptide 1 (Crosstide) [2, 7]: <1% | SGK2 activity % relative to peptide 1 (Crosstide) [3, 8]: <1% | SGK activity relative to peptide 1 (Crosstide) [4]: <1% | SGK3 activity % relative to peptide 1 (Crosstide) [5, 9]: <1%

RPRTSAF [Peptide 3, ID; NO: 32]
PKBα activity relative to peptide 1 (Crosstide) [1]: <1% | SGK1 activity % relative to peptide 1 (Crosstide) [2, 7]: <1% | SGK2 activity % relative to peptide 1 (Crosstide) [3, 8]: <1% | SGK activity relative to peptide 1 (Crosstide) [4]: <1% | SGK3 activity % relative to peptide 1 (Crosstide) [5, 9]: <1%

RPRTSTF [Peptide 6, ID; NO: 35]
PKBα activity relative to peptide 1 (Crosstide) [1]: 208% | SGK1 activity % relative to peptide 1 (Crosstide) [2, 7]: 129% | SGK2 activity % relative to peptide 1 (Crosstide) [3, 8]: 192% | SGK activity relative to peptide 1 (Crosstide) [4]: 156% | SGK3 activity % relative to peptide 1 (Crosstide) [5, 9]: 156%

RPRAATF [Peptide 7]
PKBα activity relative to peptide 1 (Crosstide) [1]: 55% | SGK1 activity % relative to peptide 1 (Crosstide) ([2]; […]): 44% | SGK2 activity % relative to peptide 1 (Crosstide) ([3]; […]): 61% | SGK activity relative to peptide 1 (Crosstide) [4]: 73% | SGK3 activity % relative to peptide 1 (Crosstide) ([5]; […]): 56%

RPRTSSA [Peptide 13, ID; NO: 42]
PKBα activity relative to peptide 1 (Crosstide) [1]: 26% | SGK1 activity % relative to peptide 1 (Crosstide) [2, 7]: 49% | SGK2 activity % relative to peptide 1 (Crosstide) [3, 8]: 82% | SGK activity relative to peptide 1 (Crosstide) [4]: 107% | SGK3 activity % relative to peptide 1 (Crosstide) [5, 9]: 123%

KPRTSSF [Peptide 8, ID; NO: 37]
PKBα activity relative to peptide 1 (Crosstide) [1]: 6% | SGK1 activity % relative to peptide 1 (Crosstide) [2, 7]: <1% | SGK2 activity % relative to peptide 1 (Crosstide) [3, 8]: <1% | SGK activity relative to peptide 1 (Crosstide) [4]: 2% | SGK3 activity % relative to peptide 1 (Crosstide) [5, 9]: <1%

RPRTSSL [Peptide 11, ID; NO: 40]
PKBα activity relative to peptide 1 (Crosstide) [1]: 69% | SGK1 activity % relative to peptide 1 (Crosstide) [2, 7]: 108% | SGK2 activity % relative to peptide 1 (Crosstide) [3, 8]: 185% | SGK activity relative to peptide 1 (Crosstide) [4]: 135% | SGK3 activity % relative to peptide 1 (Crosstide) [5, 9]: 113%

RPRTSS [Peptide 5, ID; NO: 31]
PKBα activity relative to peptide 1 (Crosstide) [1]: <1% | SGK1 activity % relative to peptide 1 (Crosstide) [2, 7]: 5.1% | SGK2 activity % relative to peptide 1 (Crosstide) [3, 8]: 8% | SGK activity relative to peptide 1 (Crosstide) [4]: 10% | SGK3 activity % relative to peptide 1 (Crosstide) [5, 9]: 18%

RPRTSSK [Peptide 14, ID; NO: 43]
PKBα activity relative to peptide 1 (Crosstide) [1]: 48% | SGK1 activity % relative to peptide 1 (Crosstide) [2, 7]: 84% | SGK2 activity % relative to peptide 1 (Crosstide) [3, 8]: 128% | SGK activity relative to peptide 1 (Crosstide) [4]: 146% | SGK3 activity % relative to peptide 1 (Crosstide) [5, 9]: 200%

EGF: activator of the classical MAP kinase cascade in 293 cells
Activation of SGK by the stimulus (in words) [6]: did not induce any activation

RPRTSSV [Peptide 12, ID; NO: 41]
PKBα activity relative to peptide 1 (Crosstide) [1]: 67% | SGK1 activity % relative to peptide 1 (Crosstide) [2, 7]: 90% | SGK2 activity % relative to peptide 1 (Crosstide) [3, 8]: 124% | SGK activity relative to peptide 1 (Crosstide) [4]: 131% | SGK3 activity % relative to peptide 1 (Crosstide) [5, 9]: 139%

RPRTSSF [Peptide 2, ID; NO: 39]
PKBα activity relative to peptide 1 (Crosstide) [1]: 160% | SGK1 activity % relative to peptide 1 (Crosstide) [2, 7]: 135% | SGK2 activity % relative to peptide 1 (Crosstide) [3, 8]: 182% | SGK activity relative to peptide 1 (Crosstide) [4]: 154% | SGK3 activity % relative to peptide 1 (Crosstide) [5, 9]: 137%
